Data reported in the supplement of paper PMC9170038.

How the values were obtained:
MS2 coat protein [1] = test: apparent KD of MS2 coat protein, switch ON state; designed switch direction (-1 OFF switch, 1 ON switch): 1; higher = weaker reporter binding; settings: FMN input: 0 or 200 uM; Eterna round: R93 (includes R88 designs)
In short: (§1)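 Values are apparent KD, taken as the median for each design of fits to normalised binding curves from individual clusters. The designed RNA switches were transcribed on-chip from Illumina sequencing clusters and exposed to SNAP-549-labelled MS2 coat protein at twofold increasing amounts from 0.7 or 1.5 nM to 3 µM. Titration used 100 mM Tris-HCl pH 7.5, 80 mM KCl and 4 mM MgCl2, without or with constant ligand.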

MS2 coat protein [2] = test: apparent KD of MS2 coat protein, switch OFF state (with FMN for OFF switches, without FMN for ON switches); designed switch direction (-1 OFF switch, 1 ON switch): 1; higher = weaker reporter binding; settings: FMN input: 0 or 200 uM; Eterna round: R93 (includes R88 designs)
In short: as §1

| Sequence | apparent KD of MS2 coat protein (MS2 coat protein [1]) [nM] | apparent KD of MS2 coat protein (MS2 coat protein [2]) [nM] |
| --- | --- | --- |
| CGAAGACAUGAGGAUCACCCAUGUGGGAUUAUGGGAGGAUAUACAAAGACGAGAGUCAGAGUAGAAGGCCUAGGAG [salish99-ss1-126(!)] | 28.7 | 47.1 |
| CGAGAACAUGAGGAUCACCCAUGUAAUGAAUGGUCAGGAUAUGGAGAUAGAUGACAAGCGCCAGAAGGGACAUCAG [JR_SS001_Sub1001] | 42.9 | 53.9 |
| CGCGAACAUGAGGAUCACCCAUGUAAAUCGCAUGUAGGAUAUGGGAAACACAUUAAGAUCCCAGAAGGGCGGAAAA [Anquve] | 41.3 | 31.2 |
| CGCGAACAUGAGGAUCACCCAUGUGAAAAACAUAGAGGAUAUGUCGCAUGCGUGUAAAAGACAGAAGGCUAUCGCG [Normal (21/22)] | 22.8 | 72.5 |
| CGGAGACAUGAGGAUCACCCAUGUGAGAAGAGGCGAGGAUAUCGAAAGAAAGAAGAGAAACGAGAAGGCGCGAGCA [salish99-SS1-068] | 22.9 | 24.4 |
| CGGAGACAUGAGGAUCACCCAUGUGAGAAGAGGCGAGGAUAUCGAAAGAAAGAAGAGAAACGAGAAGGCGCGAGCG [salish99-SS1-076] | 32.8 | 42.4 |
| CGGAGACAUGAGGAUCACCCAUGUGAGAAGAGGCGAGGAUAUCGAAAGAAAGAAGAGAAACGAGAAGGCGCGAGGC [salish99-SS1-079] | 21.1 | 41.2 |
| CGGGAAGAGAGAGAGGAUAUCCAAAGGAAAACAUGAGGAUCACCCAUGUAGAAGGUAGGAAAUUGGGAGAAGGCUCAAGAGAGAG [salish99-ss2-134] | 37.2 | 33.7 |
| CUGGAACAUGAGGAUCACCCAUGUCACAGAAACUGAGGAUAUGGGCGCUAACAAGCAUGACCAGAAGGCAGACACG [Mamaes] | 18 | 27.2 |
| CUGGACCUAGGAUAGGAUAUGUGAAUAAUUACAUGAGGAUCACCCAUGUCCAUUUAUAUGGGAACAUAGAAGGGUUCUGGUUAAG [Mat - Same state - Malcolm Mod - D146] | 42.2 | 66.1 |
| GAAAAACAUGAGGAUCACCCAUGUAAGAUAAACACAGGAUAUGCGAAAAGAAAGAAAGAAGCAGAAGGGUGAAGAA [Mat - Same State 1 - Tesla mod - 40] | 12.3 | 33.7 |
| GAAAAACAUGAGGAUCACCCAUGUAAGAUAAACACAGGAUAUGCGAAAAUAAAUAAAUAAGCAGAAGGGUGAAGAA [Mat - Same State 1 - Tesla mod - 74] | 11.5 | 35.2 |
| GAAAAACAUGAGGAUCACCCAUGUAGAAAUAUGGAAGGAUAUACGAAGACGAAAGUCAAAGUAGAAGGUCUAAAAG [Garnet 96] | 17 | 19.5 |
| GAAAAACAUGAGGAUCACCCAUGUAGAAAUAUGGGAGGAUAUACGAAGACGAAAGUCAAAGUAGAAGGCCUAAAGA [Mat - Same State 1 - Eli mod - D103] | 26.5 | 70.4 |
| GAAAAACAUGAGGAUCACCCAUGUAGAAAUAUGGGAGGAUAUACUAAGACGAAAGUCGAAGUAGAAGGCCUAAAAG [Same State 1.4f (Mat - Mod of Eli - )] | 21.7 | 54.2 |
| GAAAAACAUGAGGAUCACCCAUGUAGAAAUAUGGGAGGAUAUUCAAAGACGAAAGUCAAAGAAGAAGGCCUAAAAG [Mat - Same State 1 - Eli mod - 36] | 29.1 | 113 |
| GAAAAACAUGAGGAUCACCCAUGUGAAAAUAUGGGAGGAUAUACAAAGACGAAAGUCAAAGUAGAAGGCCUAAGAG [Garnet 34] | 22.1 | 72 |
| GAAAAACAUGAGGAUCACCCAUGUGACAACAUGGGAGGAUAUACAUGGACGAUAGUCAAAGUAGAAGGCCUAAAAG [Garnet 63] | 142 | 24.4 |
| GAAAAACAUGAGGAUCACCCAUGUGAGAAUAUGGAAGGAUAUACAAAGACGAGAGUCAAAGUAGAAGGUCUAAAAG [Mat - Same State 1 - Eli mod - D21] | 22.1 | 31.7 |
| GAAAAACAUGAGGAUCACCCAUGUGAGAAUAUGGGAGGAUAUACAAAGACGAAAGUCAAAGUAGAAGGCCUAAAAG [Mat - Same State 1 - Eli mod - D6] | 27.6 | 94.5 |
| GAAAAACAUGAGGAUCACCCAUGUGAGAAUAUGGGAGGAUAUACGAAGACGAGAGUCGAAGUAGAAGGCCUAAAAG [Mat - Same State 1 - Eli mod - 31] | 28.2 | 119 |

| Sequence | apparent KD of MS2 coat protein (MS2 coat protein [1]) [nM] | apparent KD of MS2 coat protein (MS2 coat protein [2]) [nM] |
| --- | --- | --- |
| GAAAAACAUGAGGAUCACCCAUGUGAGAUAAACACAGGAUAUGCGAAAAGAAACAAAUAAGCAGAAGGGUGAAAAG [Mat - Same State 1 - Tesla mod - 81] | 44.1 | 282 |
| GAAAAACAUGAGGAUCACCCAUGUGAUAAUAUGGGAGGAUAUACAAAGACGAAAGUCAAAGUAGAAGGCCUAAAAG [Garnet 35] | 40.5 | 73.2 |
| GAAAAACAUGAGGAUCACCCAUGUGGAAAUAUGGGAGGAUAUACUAUGACGAAAGUCAAAGUAGAAGGCCUGAUAG [JL S1 M-MoE mod 5 In the Read] | 24.7 | 124 |
| GAAAAACAUGAGGAUCACCCAUGUGUAAACAUGGGAGGAUAUACAAAGACGUAAGUCAAAGUAGAAGGCCUAAGAG [Garnet 37] | 128 | 15.3 |
| GAAAAACAUGAGGAUCACCCAUGUGUAAAUAUGGAAGGAUAUACAAAGACGAAAGUCAAAGUAGAAGGUCUAAAAG [Mat - Same State 1 - Eli mod - D16] | 23.5 | 28.9 |
| GAAAAUAAAAGACAGGAUAUCCAAAAGAAAACAUGAGGAUCACCCAUGUAAAGAAAAUAAAAAUGGGAGAAGGGUCAAAUAAAAG [Mat - Same State 2 - JL mod - D52] | 64.8 | 56.6 |
| GAAGACAUAGUUCAGGAUAUAGGAAUAGUCACAUGAGGAUCACCCAUGUGCAUUUAUAUGCGCGCUUAGAAGGGAGGUAGAUAUA [SameState2 Malc#20] | 23.8 | 20.8 |
| GACAGACAUGAGGAUCACCCAUGUACAAACGUACAAGGAUAUGUGUGGAAACCGUACUAUACAGAAGGUGUCUGUC [SS1 - 90] | 126 | 90.3 |
| GACGAACAUGAGGAUCACCCAUGUCAAAACGGACAAGGAUAUGUGUGGAAACCGUACUAUACAGAAGGUGUCUGUC [SS1 - 98] | 16.1 | 21.3 |
| GACUGCGAUGUGAAGGAUAUCCGCGACUGGACAUGAGGAUCACCCAUGUAUGCUUAGAACAUGCCGGAGAAGGUCACGAAUGAUU [JR_SS002_Sub1217] | 20.6 | 32.3 |
| GAGAAGAAGAGAGAGGAUAUCCAAAGGAAAACAUGAGGAUCACCCAUGUAAAAGGUAGGAAAUUGGGAGAAGGCUCAGAAGAGGG [salish99-ss2-030] | 23.2 | 26.6 |
| GAGAUACAUGAGGAUCACCCAUGUUGAAAUAUGGGAGGAUAUACAAGGUCGAAAGAUAAGGUAGAAGGCCUAAAAG [LROPPY Same State 1 - v03_deltaG=1.1] | 39.1 | 176 |
| GAGCCGCGGGCACAGGAUAUGCUCGGGCAAACAUGAGGAUCACCCAUGUGCGGCCUAAAUACGACGCAGAAGGGUGCUGGUGUGU [Orxeis] | 44 | 147 |
| GAGGACAUAGUAUAGGAUAUAUGAAUAAUUACAUGAGGAUCACCCAUGUCCAUUUAUAUGGGAACAUAGAAGGGUGGUAGUUAUC [SameState2 Malc#33] | 102 | 202 |
| GAGGACCUAGGAUAGGAUAUAUGAAUAAUUACAUGAGGAUCACCCAUGUCCAUUUAUAUGGGAACAUAGAAGGGUUGUGGUUAUC [SameState2 Malc#36] | 147 | 178 |
| GAGGACCUAGGAUAGGAUAUGUGAAAAAUUACAUGAGGAUCACCCAUGUCCAUUUAUAUGGGAACAUAGAAGGGUUCUGGUUAUC [Mat - Same state - Malcolm Mod - D150] | 35.7 | 61.6 |
| GAUAAACAUGAGGAUCACCCAUGUAGAAAUAUGGGAGGAUAUACAAAGACGAUAGUCAAAGUAGAAGGCCUAAAAG [77%, Mat - Mod of Eli - With 2 more U's] | 24.8 | 85.9 |
| GAUAAACAUGAGGAUCACCCAUGUAGAUAUAUGGGAGGAUAUACAUAGACGAUAGUCAUAGUAGAAGGCCUAAUAG [77%, Mat - Mod of Eli - With 6 more U's] | 35.6 | 119 |
| GAUUACAUAGUUCAGGAUAUAUGAAUAGUCACAUGAGGAUCACCCAUGUCCAUUUAUAUGGGCACAUAGAAGGGAGGUAGGGAUC [Mat - Same state - Malcolm Mod - D148] | 392 | 571 |
| GCAGGGCUAAACUAGGAUAUGGGUGUCUAGACAUGAGGAUCACCCAUGUGAUGGCAAAACAAAGCUCAGAAGGAGUGGUAGCCCA [Quendi] | 11.9 | 75.4 |
| GCUCCAGCUAGCAAGGAUAUGUAGGAUGCUACAUGAGGAUCACCCAUGUGCUGAAAUAAGUCCCGGCAGAAGGUGUGACUGGAGC [Quleorla] | 13.8 | 19.9 |
